This passage reports activity results from US20260002151, “COMPOSITIONS AND METHODS FOR THE MODIFICATION AND REGULATION OF LIVER GENE EXPRESSION” (Mammoth Biosciences, Inc., published 2026).

T1: CasM.265466 D220R (unidentified, D220R)
T1 chain: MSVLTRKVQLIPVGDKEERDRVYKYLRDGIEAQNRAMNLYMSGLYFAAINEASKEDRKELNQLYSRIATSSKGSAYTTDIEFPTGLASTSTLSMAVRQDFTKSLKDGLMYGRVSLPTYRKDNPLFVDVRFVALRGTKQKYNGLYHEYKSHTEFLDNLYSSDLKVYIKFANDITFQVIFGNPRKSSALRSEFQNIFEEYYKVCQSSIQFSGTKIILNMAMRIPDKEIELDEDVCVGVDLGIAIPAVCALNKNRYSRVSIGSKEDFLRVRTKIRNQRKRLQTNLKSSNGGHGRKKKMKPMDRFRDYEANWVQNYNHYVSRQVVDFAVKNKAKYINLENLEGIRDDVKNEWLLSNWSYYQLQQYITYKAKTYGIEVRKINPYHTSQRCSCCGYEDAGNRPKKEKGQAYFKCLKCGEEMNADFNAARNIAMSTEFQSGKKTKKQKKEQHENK

B1: R16929 guide ; APOC3 target of R16929 (ssRNA ; dsDNA)
RNA: ACAGCUUAUUUGGAAGCUGAAAUGUGAGGUUUAUAACACUCACAAGAAUCCUGAAAAAGGAUGCCAAACACCUCAGGGUCCAAAUCCCA
DNA 1: ACCTCAGGGTCCAAATCCCA
DNA 2: TGGGATTTGGACCCTGAGGT
B2: R16928 guide ; APOC3 target of R16928 (ssRNA ; dsDNA)
RNA: ACAGCUUAUUUGGAAGCUGAAAUGUGAGGUUUAUAACACUCACAAGAAUCCUGAAAAAGGAUGCCAAACGACCCUGAGGUCAGACCAAC
DNA 1: GACCCTGAGGTCAGACCAAC
DNA 2: GTTGGTCTGACCTCAGGGTC
B3: R16927 guide ; APOC3 target of R16927 (ssRNA ; dsDNA)
RNA: ACAGCUUAUUUGGAAGCUGAAAUGUGAGGUUUAUAACACUCACAAGAAUCCUGAAAAAGGAUGCCAAACAGUUCUGGGAUUUGGACCCU
DNA 1: AGTTCTGGGATTTGGACCCT
DNA 2: AGGGTCCAAATCCCAGAACT

In this series the target is T1, CasM.265466 D220R. The experiment in a line: cell_activity; AAV8 in hAPOC3 mice, vehicle 936; PAM NNTN. The text has this:
Samples were collected from mice at 2 and 4 weeks.
Levels of human APOC3 protein in liver were quantified by ELISA. CasM.265466 variant D220R and multiple APOC3 guide RNAs tested reduced human ApoC3 protein in liver at 2 weeks and 4 weeks. […] Liver and body weights were normal at 0, 2 and 4 weeks. At four weeks post injection ALT levels were reduced in mice that received CasM.265466 variant D220R or CasPhi.12 variant L26R when compared those of mice receiving vehicle only. […] The guide IDs shown in the legend from top to bottom correspond to the data points in the graphs from left to right.
For the molecule B1, the activity came to 247 mg/dL serum triglycerides.
The value for B2 was 190 mg/dL serum triglycerides; that for B3 was 145 mg/dL serum triglycerides.
